Results reported in patent publication US8470587B2, “129Xe biosensors and their use” (The Trustees of the University of Pennsylvania, priority 2006, dated 2013).
Several values for one entry are separate records, joined by “and”; a condition that tells them apart may be missing. Equal values may be shown once. Read-outs that look alike come from different tables or passages of the source. One block for each molecule: values may come before it. * marks the point of attachment. monopropargyl‑cryptophane‑A = monopropargyl-cryptophane-A, coupled to the azido-peptide by Cu(I)-mediated coupling; 3‑azidopropionyl = [N-]=[N+]=NCCC(=O)*

Columns and labels:
MMP-7 [1] = target: T1, MMP-7 (Homo sapiens, UniProt P09237); conditions: reported previously at 303 K; cited from earlier work
T1 construct: BIOMOL International LP, MMP-7 (recombinant, catalytic domain); purchased BIOMOL International LP
T1 sequence (P09237 95-267): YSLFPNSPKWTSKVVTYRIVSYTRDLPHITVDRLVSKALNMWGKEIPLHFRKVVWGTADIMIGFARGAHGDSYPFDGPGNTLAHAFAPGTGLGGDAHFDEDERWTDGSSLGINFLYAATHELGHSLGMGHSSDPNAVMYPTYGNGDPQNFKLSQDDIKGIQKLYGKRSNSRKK

MMP-7 [2] = target: T1, MMP-7; experiment: MMP-7 enzymatic assay monitored by HPLC (UV-vis); assay type: biochemical
Experimental: (§1) At rt, an aliquot (2 μL) of active MMP-7 (0.454 μg/μL) was added into 0.998 mL of a freshly prepared solution of biosensor I at a known concentration in standard buffer. The extinction coefficient of I, ε=15,000 M^−1 cm^−1 at 280 nm in water, was determined from a solution containing the weighed sample. At approximately 3 min intervals, 70 μL aliquots were removed from the reaction mixture and immediately quenched with 30 μL of a 40 mM EDTA solution. Each aliquot was analyzed by HPLC with the gradient: time 0, A/B=75/25; 0-30 min, linear increase to A/B=45/55; 30-32 min, linear change to A/B=20/80; 32-42 min, A/B=20/80. The retention times for I and II were 15.6 min and 17.9 min, respectively. The enzyme activity was determined from the initial rate of increase in the concentration of cleaved sensor II, during the consumption of the first 10-15% of substrate I. The absorbance at 280 nm of the growing peak at 17.9 min was integrated and compared for each time point. Initial velocities were measured at substrate I concentrations of 6, 16, 28, 38, 48, 74 and 100 μM.
(§2) For the azidopeptide substrate 1, enzyme activity was determined similarly by HPLC with the gradient: time 0, A/B=90/10; 0-30 min, linear increase to A/B=60/40; 30-32 min, linear change to A/B=20/80; 32-42 min, A/B=20/80. Peak areas were monitored for the intact substrate 1 and cleaved hexapeptide product 3 at retention times of 17.0 and 10.3 min, respectively. Initial velocities were measured at substrate 1 concentrations of 6, 50, 100, and 870 μM.
The ability of MMP-7 to hydrolyze ^129Xe biosensor I was initially confirmed by HPLC analysis (FIG. 3a). A standard assay was performed by incubating a 1 mL reaction mixture of 32 nmol I and 42 pmol MMP-7 at 310 K. Reaction progress was monitored by analyzing aliquots of the reaction mixture at regular intervals. […] MALDI-TOF mass spectrometry identified these new peaks as the cleaved hexapeptide LWRSRK 3 and cryptophane-peptide product II, respectively. The peptide cleavage pattern agreed with previous assays using this substrate. […]

MMP-7 [3] = target: T1, MMP-7; experiment: fluorometric MMP-7 enzymatic assay (Trp fluorescence); assay type: biochemical
Experimental: Fluorescence spectra of I and II dissolved in standard buffer (λex=295 nm) were measured in small volume, 1-cm pathlength quartz cuvettes at 298 K using a Varian Cary Eclipse fluorescence spectrophotometer operated with the Cary Eclipse Bio software package (1 nm steps, 5 nm excitation and emission slits). Kinetics data were collected at 30 s intervals using the same software on samples with controlled temperature and stirring.
For the fluorometric enzymatic assay, an aliquot (2 μL) of active MMP-7 (0.454 μg/μL) was added into 0.998 mL solution of ^129Xe biosensor I with known concentration at 298 K. Fluorescence spectra were collected from 310-450 nm. All reported fluorescence data are uncorrected and are roughly 5 nm red-shifted from the values obtained when the instrumental correction feature is employed. Trp fluorescence at 400 nm was analyzed as a function of time, since there was little contribution at this wavelength from monopropargyl-cryptophane-A fluorescence. The enzyme activity was calculated from the initial rate of decrease in Trp emission at 400 nm, over the time interval that corresponded to the first 10-15% completion of the reaction. The kcat/KM value for biosensor I was calculated by non-linear regression of the activity data by varying the biosensor concentration from 6-100 μM; double-reciprocal 1/v versus 1/[S] Lineweaver-Burk plots^49 gave a similar kcat/KM value.
In enzyme kinetics studies, the fluorescence spectrum of I was taken at 30 s intervals after addition of MMP-7 (FIG. 7b). A continuous decrease of Trp emission was observed. The change in fluorescence intensity at 400 nm was used to calculate the initial velocity (v) of the enzyme reaction. The v values determined by HPLC and fluorometric methods were in excellent agreement (Table 1), which validated using the fluorometric assay to monitor this enzyme reaction. The Trp fluorescence assays were easier to run, allowed continuous monitoring of the reaction, provided greater sensitivity, and required less material than HPLC-based UV-vis absorbance measurements.

[4] = concentration dependence of fluorescence intensity (aggregation); assay type: physicochemical; conditions: fluorescence intensity linear over 1-250 μM, standard buffer
Experimental: Solutions were at room temperature in standard buffer. The fluorescence intensity for each compound at a given wavelength and concentration was normalized to its value at the maximum biosensor concentration, in order to facilitate comparison and show linearity over a large concentration range.
Experiments were performed to identify the important contributions to the observed Trp fluorescence quenching. In the fully extended biosensor I (FIG. 1) cryptophane and Trp were separated by approximately 40 Å. Temperature dependence studies identified little contribution to Trp quenching from the cryptophane within the intact biosensor I. The observed decrease in Trp fluorescence at elevated temperatures (λem=358 nm, F/F0=0.3 at 353 K) was virtually identical to that seen with the Trp-containing hexapeptide 3, and was thus attributed to temperature-dependent solvent quenching by non-radiative decay processes. […] This was confirmed with I and II by comparing the concentration dependence of fluorescence intensity (λex=295 nm, λem=318 nm for cryptophane and λem=358 nm for Trp), after correcting for inner filter effects and dilution. Neither compound's fluorescence intensity deviated from linearity over the concentration range, 1-250 μM (FIG. 8). The absorption and fluorescence maxima were unchanged over this range.

MMP-7 [5] = target: T1, MMP-7; experiment: MMP-7 enzyme kinetic parameters, Michaelis-Menten fit of initial velocities; assay type: biochemical
Experimental: as §1
(§3) The kcat/KM value for all peptide substrates was calculated based on the Michaelis-Menten equation (Equation 1) after fitting the activity data at varying substrate concentrations with a non-linear regression curve: […]
as §2
(§4) For the fluorometric enzymatic assay, an aliquot (2 μL) of active MMP-7 (0.454 μg/μL) was added into 0.998 mL solution of ^129Xe biosensor I with known concentration at 298 K. Fluorescence spectra were collected from 310-450 nm. […]

[6] = system: Trp-containing hexapeptide LWRSRK 3; experiment: Stern-Volmer fluorescence quenching of hexapeptide 3 by cleaved biosensor II; assay type: binding; conditions: 3 at 16 μM, II 0-120 μM, 298 K, standard buffer; listed as II
Experimental: Solution of 3 was titrated with 3.18 mM II, to achieve concentrations of II between 0 and 120 μM. Steady-state fluorescence measurements found the ratio of initial fluorescence, F0, to observed fluorescence, F, at each quencher concentration. The linear fit gave an R^2 value of 0.88, which indicated a dominant static quenching mechanism. The slope of this line gave the association constant, KS=9000 M^−1, for the II-3 complex.
Having ruled out a prevalent role for intra- and intermolecular interactions within or between biosensors, we sought further to explain the decrease in Trp fluorescence upon enzymatic cleavage. […] To examine this quenching mechanism, the steady-state fluorescence intensity of the hexapeptide LWRSRK 3 was measured as a function of the cleaved sensor II (putative quencher) concentration in standard buffer. This Stern-Volmer experiment could only be performed within a limited range of II concentrations, due to limitations in the quantity of material and the contribution of this compound to total fluorescence. […] All fluorescence spectra were corrected to remove contributions from cryptophane. The resulting fluorescence maximum at 358 nm, which corresponded to Trp emission of I, decreased with successive additions of II. […]

[7] = target: T2, azidopeptide N3-CH2CH2-CONH2-RKRPLALWRSRK
T2 chain: RKRPLALWRSRK

[8] = target: T3, MMP-7-responsive 129Xe biosensor I (monopropargyl-cryptophane-A coupled to azidopeptide RKRPLALWRSRK)
T3 chain: RKRPLALWRSRK

[9] = substrate: CC(C)C[C@H](NC(=O)[C@H](C)NC(=O)[C@H](CC(C)C)NC(=O)[C@@H]1CCCN1C(=O)[C@H](CCCNC(=N)N)NC(=O)[C@H](CCCCN)NC(=O)[C@H](CCCNC(=N)N)NC(=O)CCN=[N+]=[N-])C(=O)N[C@@H](Cc1c[nH]c2ccccc12)C(=O)N[C@@H](CCCNC(=N)N)C(=O)N[C@@H](CO)C(=O)N[C@@H](CCCNC(=N)N)C(=O)N[C@@H](CCCCN)C(=O)O; experiment: MMP-7 enzyme kinetic parameters, Michaelis-Menten fit of initial velocities; assay type: biochemical; conditions: other: MMP-7 42 nM, 298 K, standard buffer
Experimental: as §1, §3, §2, §4

hexapeptide LWRSRK = target: T4, hexapeptide LWRSRK; experiment: Stern-Volmer steady-state Trp fluorescence quenching; hexapeptide 3 (16 µM) titrated with II (0-120 µM), 298 K, standard buffer
T4 sequence (peptide): LWRSRK

[10] = MMP-7 42 nM, 298 K, standard buffer

Molecule: dinitrophenyl-Arg-Pro-Leu-Ala-Leu-Trp-Arg-Ser
Km (MMP-7 [1]): 26 µM

Initial velocity, HPLC assay (MMP-7 [2]; Biosensor I 6 μM): 1 pmol/s
Initial velocity, HPLC assay (MMP-7 [2]; Biosensor I 50 μM): 10 pmol/s
Initial velocity, HPLC assay (MMP-7 [2]; Biosensor I 100 μM): 7 pmol/s
Initial velocity, fluorometric assay (MMP-7 [3]; Biosensor I 6 μM): 0.9 pmol/s
Initial velocity, fluorometric assay (MMP-7 [3]; Biosensor I 50 μM): 9 pmol/s
Initial velocity, fluorometric assay (MMP-7 [3]; Biosensor I 100 μM): 8 pmol/s
Molecule: Biosensor I: monopropargyl-cryptophane-A 7 coupled by [3+2] cycloaddition to azidopeptide 1 (RKRPLALWRSRK); MMP-7-responsive 129Xe biosensor ({monopropargyl‑cryptophane‑A (triazole via Cu(I) (3+2) cycloaddition)-3‑azidopropionyl}-RKRPLALWRSRK-OH)
aggregation in solution [4]: unlikely to aggregate
fold lower Vmax relative to substrate 1 (MMP-7 [5]): 3.6 fold
Km (MMP-7 [5]; [10]): 43 µM
Vmax (MMP-7 [5]; [10]): 1.3e-08 M/s

Molecule: Biosensor II: monopropargyl-cryptophane-A 7 coupled to azidopeptide 2 (RKRPLA); MMP-7 cleaved product of I ({monopropargyl‑cryptophane‑A-3‑azidopropionyl (triazole link)}-RKRPLA-OH)
aggregation in solution [4]: unlikely to aggregate
association constant KS of the II-3 complex [6]: 9000 ± 1000 M⁻¹ and 9000 M⁻¹

B1: MMP-7 (Homo sapiens) (protein)
chain: T1 sequence (P09237 95-267)
notes: BIOMOL International LP, MMP-7 (recombinant, catalytic domain); purchased BIOMOL International LP
KM [7]: 150 µM
Vmax [7]: 4.7e-08 M/s
kcat/KM [7]: 7300 M⁻¹ s⁻¹
KM [8]: 43 µM
Vmax [8]: 1.3e-08 M/s
initial velocity v of proteolysis of biosensor I by MMP-7 (42 nM), fluorometric assay, 298 K; shown without a printed number [8]: v rises with [Biosensor I] from about 1 nM s-1 at about 6 µM to about 8-9 nM s-1 at 74-100 µM; the Michaelis-Menten fit line is still rising at 100 µM, no upper plateau inside the range
kcat/KM [8]: 7200 M⁻¹ s⁻¹
Km [9]: 150 µM
Vmax [9]: 2.82 µM/min
kcat/Km [9]: 7300 M⁻¹ s⁻¹

Ka (hexapeptide LWRSRK): 9000 M⁻¹
B2: cleaved biosensor II (monopropargyl-cryptophane-A coupled to azidopeptide RKRPLA) (peptide)
peptide: {monopropargyl‑cryptophane‑A (via triazole, CuAAC)-3‑azidopropionyl}-RKRPLA-OH
